Laboratory results from patent US20260201008A1, “SECRETIN-DERIVED GLP1R SELECTIVE AGONISTS” (GUBRA A/S, priority 2023, published 2026).
Square brackets hold non-standard residues; d marks the D form. Ends that are not written are not given here. Aib = CC(C)(N)C(=O)O

Key:
[1] = target: human GLP-1 receptor (hGLP1R) (human, UniProt P43220 24-463); test: cell-based or functional assay
[2] = target: human secretin receptor (hSCTR) (human, UniProt P47872 23-440); test: cell-based or functional assay
Sequence of human secretin receptor (hSCTR) (P47872 23-440): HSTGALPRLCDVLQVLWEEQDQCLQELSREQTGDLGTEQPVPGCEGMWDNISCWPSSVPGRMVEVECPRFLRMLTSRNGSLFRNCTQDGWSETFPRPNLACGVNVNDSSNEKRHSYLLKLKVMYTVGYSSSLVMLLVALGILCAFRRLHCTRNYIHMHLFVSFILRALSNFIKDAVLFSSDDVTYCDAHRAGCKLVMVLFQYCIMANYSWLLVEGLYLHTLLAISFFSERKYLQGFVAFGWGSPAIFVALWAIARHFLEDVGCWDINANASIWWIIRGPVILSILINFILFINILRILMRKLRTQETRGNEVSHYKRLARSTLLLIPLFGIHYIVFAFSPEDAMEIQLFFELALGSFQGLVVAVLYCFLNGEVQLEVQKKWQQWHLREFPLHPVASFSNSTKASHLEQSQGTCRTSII

B1: SEQ ID NO: 117 (peptide)
peptide: H[Aib]EGTFTSDISFLLEGAALQRFIQWLV-NH2
modifications: N-terminus assumed
SMILES: CC[C@H](C)[C@H](NC(=O)[C@H](Cc1ccccc1)NC(=O)[C@H](CCCNC(=N)N)NC(=O)[C@H](CCC(N)=O)NC(=O)[C@H](CC(C)C)NC(=O)[C@H](C)NC(=O)[C@H](C)NC(=O)CNC(=O)[C@H](CCC(=O)O)NC(=O)[C@H](CC(C)C)NC(=O)[C@H](CC(C)C)NC(=O)[C@H](Cc1ccccc1)NC(=O)[C@H](CO)NC(=O)[C@@H](NC(=O)[C@H](CC(=O)O)NC(=O)[C@H](CO)NC(=O)[C@@H](NC(=O)[C@H](Cc1ccccc1)NC(=O)[C@@H](NC(=O)CNC(=O)[C@H](CCC(=O)O)NC(=O)C(C)(C)NC(=O)[C@@H](N)Cc1c[nH]cn1)[C@@H](C)O)[C@@H](C)O)[C@@H](C)CC)C(=O)N[C@@H](CCC(N)=O)C(=O)N[C@@H](Cc1c[nH]c2ccccc12)C(=O)N[C@@H](CC(C)C)C(=O)N[C@H](C(N)=O)C(C)C
[1]
  pEC50 hGLPR1: 11 -log M
[2]
  pEC50 hSCTR: 6.7 -log M

B2: SEQ ID NO: 121 (peptide)
peptide: H[Aib]EGTFTSDPSYLKEEA[Aib]LQRFLEHLV-NH2
modifications: not fully specified (residue 14)
[1]
  pEC50 hGLPR1: 8.6 -log M
[2]
  pEC50 hSCTR: 4.4 -log M

B3: SEQ ID NO: 116 (peptide)
peptide: H[Aib]EGTFTSDISVLLEGAALQRFIQWLV-NH2
modifications: N-terminus assumed
SMILES: CC[C@H](C)[C@H](NC(=O)[C@H](Cc1ccccc1)NC(=O)[C@H](CCCNC(=N)N)NC(=O)[C@H](CCC(N)=O)NC(=O)[C@H](CC(C)C)NC(=O)[C@H](C)NC(=O)[C@H](C)NC(=O)CNC(=O)[C@H](CCC(=O)O)NC(=O)[C@H](CC(C)C)NC(=O)[C@H](CC(C)C)NC(=O)[C@@H](NC(=O)[C@H](CO)NC(=O)[C@@H](NC(=O)[C@H](CC(=O)O)NC(=O)[C@H](CO)NC(=O)[C@@H](NC(=O)[C@H](Cc1ccccc1)NC(=O)[C@@H](NC(=O)CNC(=O)[C@H](CCC(=O)O)NC(=O)C(C)(C)NC(=O)[C@@H](N)Cc1c[nH]cn1)[C@@H](C)O)[C@@H](C)O)[C@@H](C)CC)C(C)C)C(=O)N[C@@H](CCC(N)=O)C(=O)N[C@@H](Cc1c[nH]c2ccccc12)C(=O)N[C@@H](CC(C)C)C(=O)N[C@H](C(N)=O)C(C)C
[1]
  pEC50 hGLPR1: 10.3 -log M
[2]
  pEC50 hSCTR: 7.1 -log M

B4: SEQ ID NO: 115 (peptide)
peptide: H[Aib]EGTFTSDISRLLEGAALQRFIQWLV-NH2
modifications: N-terminus assumed
SMILES: CC[C@H](C)[C@H](NC(=O)[C@H](Cc1ccccc1)NC(=O)[C@H](CCCNC(=N)N)NC(=O)[C@H](CCC(N)=O)NC(=O)[C@H](CC(C)C)NC(=O)[C@H](C)NC(=O)[C@H](C)NC(=O)CNC(=O)[C@H](CCC(=O)O)NC(=O)[C@H](CC(C)C)NC(=O)[C@H](CC(C)C)NC(=O)[C@H](CCCNC(=N)N)NC(=O)[C@H](CO)NC(=O)[C@@H](NC(=O)[C@H](CC(=O)O)NC(=O)[C@H](CO)NC(=O)[C@@H](NC(=O)[C@H](Cc1ccccc1)NC(=O)[C@@H](NC(=O)CNC(=O)[C@H](CCC(=O)O)NC(=O)C(C)(C)NC(=O)[C@@H](N)Cc1c[nH]cn1)[C@@H](C)O)[C@@H](C)O)[C@@H](C)CC)C(=O)N[C@@H](CCC(N)=O)C(=O)N[C@@H](Cc1c[nH]c2ccccc12)C(=O)N[C@@H](CC(C)C)C(=O)N[C@H](C(N)=O)C(C)C
[1]
  pEC50 hGLPR1: 10.4 -log M
[2]
  pEC50 hSCTR: 7.8 -log M

B5: SEQ ID NO: 119 (peptide)
peptide: H[Aib]EGTFTSDISELLEGAALQRFIQWLV-NH2
modifications: N-terminus assumed
SMILES: CC[C@H](C)[C@H](NC(=O)[C@H](Cc1ccccc1)NC(=O)[C@H](CCCNC(=N)N)NC(=O)[C@H](CCC(N)=O)NC(=O)[C@H](CC(C)C)NC(=O)[C@H](C)NC(=O)[C@H](C)NC(=O)CNC(=O)[C@H](CCC(=O)O)NC(=O)[C@H](CC(C)C)NC(=O)[C@H](CC(C)C)NC(=O)[C@H](CCC(=O)O)NC(=O)[C@H](CO)NC(=O)[C@@H](NC(=O)[C@H](CC(=O)O)NC(=O)[C@H](CO)NC(=O)[C@@H](NC(=O)[C@H](Cc1ccccc1)NC(=O)[C@@H](NC(=O)CNC(=O)[C@H](CCC(=O)O)NC(=O)C(C)(C)NC(=O)[C@@H](N)Cc1c[nH]cn1)[C@@H](C)O)[C@@H](C)O)[C@@H](C)CC)C(=O)N[C@@H](CCC(N)=O)C(=O)N[C@@H](Cc1c[nH]c2ccccc12)C(=O)N[C@@H](CC(C)C)C(=O)N[C@H](C(N)=O)C(C)C
[1]
  pEC50 hGLPR1: 10.6 -log M
[2]
  pEC50 hSCTR: 7.3 -log M

B6: SEQ ID NO: 12 (peptide)
peptide: H[Aib]EGTFTSDVSELKELAASQRFLEHLV-NH2
modifications: not fully specified (residue 14)
[1]
  pEC50 hGLPR1: 10.7 -log M
[2]
  pEC50 hSCTR: 6.2 -log M

B7: SEQ ID NO: 118 (peptide)
peptide: H[Aib]EGTFTSDISWLLEGAALQRFIQWLV-NH2
modifications: N-terminus assumed
SMILES: CC[C@H](C)[C@H](NC(=O)[C@H](Cc1ccccc1)NC(=O)[C@H](CCCNC(=N)N)NC(=O)[C@H](CCC(N)=O)NC(=O)[C@H](CC(C)C)NC(=O)[C@H](C)NC(=O)[C@H](C)NC(=O)CNC(=O)[C@H](CCC(=O)O)NC(=O)[C@H](CC(C)C)NC(=O)[C@H](CC(C)C)NC(=O)[C@H](Cc1c[nH]c2ccccc12)NC(=O)[C@H](CO)NC(=O)[C@@H](NC(=O)[C@H](CC(=O)O)NC(=O)[C@H](CO)NC(=O)[C@@H](NC(=O)[C@H](Cc1ccccc1)NC(=O)[C@@H](NC(=O)CNC(=O)[C@H](CCC(=O)O)NC(=O)C(C)(C)NC(=O)[C@@H](N)Cc1c[nH]cn1)[C@@H](C)O)[C@@H](C)O)[C@@H](C)CC)C(=O)N[C@@H](CCC(N)=O)C(=O)N[C@@H](Cc1c[nH]c2ccccc12)C(=O)N[C@@H](CC(C)C)C(=O)N[C@H](C(N)=O)C(C)C
[1]
  pEC50 hGLPR1: 10.2 -log M
[2]
  pEC50 hSCTR: 7.1 -log M

B8: SEQ ID NO: 120 (peptide)
peptide: H[Aib]EGTFTSDISGLLEGAALQRFIQWLV-NH2
modifications: N-terminus assumed
SMILES: CC[C@H](C)[C@H](NC(=O)[C@H](CC(=O)O)NC(=O)[C@H](CO)NC(=O)[C@@H](NC(=O)[C@H](Cc1ccccc1)NC(=O)[C@@H](NC(=O)CNC(=O)[C@H](CCC(=O)O)NC(=O)C(C)(C)NC(=O)[C@@H](N)Cc1c[nH]cn1)[C@@H](C)O)[C@@H](C)O)C(=O)N[C@@H](CO)C(=O)NCC(=O)N[C@@H](CC(C)C)C(=O)N[C@@H](CC(C)C)C(=O)N[C@@H](CCC(=O)O)C(=O)NCC(=O)N[C@@H](C)C(=O)N[C@@H](C)C(=O)N[C@@H](CC(C)C)C(=O)N[C@@H](CCC(N)=O)C(=O)N[C@@H](CCCNC(=N)N)C(=O)N[C@@H](Cc1ccccc1)C(=O)N[C@H](C(=O)N[C@@H](CCC(N)=O)C(=O)N[C@@H](Cc1c[nH]c2ccccc12)C(=O)N[C@@H](CC(C)C)C(=O)N[C@H](C(N)=O)C(C)C)[C@@H](C)CC
[1]
  pEC50 hGLPR1: 10.3 -log M
[2]
  pEC50 hSCTR: 6.7 -log M
